From PMC7397868, “System-wide analyses of the fission yeast poly(A)+ RNA interactome reveal insights into organization and function of RNA–protein complexes”

Target: T1, Cdk9;Pch1 (Schizosaccharomyces …, UniProt Q96WV9;O74627 1-591;1-342, |)
T1 sequence 1: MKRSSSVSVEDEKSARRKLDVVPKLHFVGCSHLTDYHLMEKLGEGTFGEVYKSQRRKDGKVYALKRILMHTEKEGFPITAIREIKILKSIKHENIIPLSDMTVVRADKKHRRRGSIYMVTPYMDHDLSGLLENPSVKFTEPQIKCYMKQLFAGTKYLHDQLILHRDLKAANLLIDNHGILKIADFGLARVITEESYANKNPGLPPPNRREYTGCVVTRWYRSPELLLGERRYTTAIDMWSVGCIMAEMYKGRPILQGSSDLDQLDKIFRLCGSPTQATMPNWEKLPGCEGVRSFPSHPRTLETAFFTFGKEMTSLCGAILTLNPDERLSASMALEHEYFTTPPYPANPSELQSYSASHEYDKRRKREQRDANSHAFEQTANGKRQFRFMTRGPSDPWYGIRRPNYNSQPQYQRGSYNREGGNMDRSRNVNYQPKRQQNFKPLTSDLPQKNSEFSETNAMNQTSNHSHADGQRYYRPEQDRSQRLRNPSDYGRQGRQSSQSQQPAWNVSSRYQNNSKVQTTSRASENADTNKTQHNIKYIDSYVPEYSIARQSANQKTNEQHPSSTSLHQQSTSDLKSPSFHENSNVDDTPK
T1 sequence 2: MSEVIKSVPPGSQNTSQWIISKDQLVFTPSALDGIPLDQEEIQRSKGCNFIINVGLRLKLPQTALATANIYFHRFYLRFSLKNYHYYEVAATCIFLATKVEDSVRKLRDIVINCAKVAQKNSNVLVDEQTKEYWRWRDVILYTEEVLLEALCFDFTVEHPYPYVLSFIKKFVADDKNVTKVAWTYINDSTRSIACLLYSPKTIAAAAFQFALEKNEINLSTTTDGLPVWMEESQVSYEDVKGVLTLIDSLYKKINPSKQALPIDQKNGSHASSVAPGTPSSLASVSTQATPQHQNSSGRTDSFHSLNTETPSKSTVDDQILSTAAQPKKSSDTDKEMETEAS
Assay: fluorescence anisotropy; 8 nM RNA; four-parameter logistic fit with Hill slope; 20 mM HEPES 7.5, 150 mM NaCl, 0.5 mM MgCl2, 0.5 mM Mg(OAc)2, 1 mM 2-mercaptoethanol; 20 min at RT, read at 25 C
Details: protein: recombinant;recombinant; tags: none stated;N-terminal His-TEV, His-tag cleaved with TEV; copies: 1;1; single strand; heated 5 min at 95 C before use

B1: generic FAM-labeled RNA oligo (ssRNA)
RNA: AUUAGUAAAAUAUAUGCAUAAAGACCAGGC
- Kd: 47 ± 1.7 nM
